Data taken from patent US20220073621A1 (EUCURE BEIJING BIOPHARMA, published 2022).
Changes are numbered by the printed parent chain. Names and notes keep the numbering of the source.

B1: 17-7E4-mHvKv-IgG1 (antibody, V domains shown)
VH: QVQLQQSGAELVRPGVSVKISCKGSGFKFTDYAIHWVKQSHAKSLEWIGVISIYYGEASYNQKFKDKATLTVDTSSSTAYMELARLTSEDSAIYYCAREDYYGSSSYFDYWGQGTALTVSS
VL: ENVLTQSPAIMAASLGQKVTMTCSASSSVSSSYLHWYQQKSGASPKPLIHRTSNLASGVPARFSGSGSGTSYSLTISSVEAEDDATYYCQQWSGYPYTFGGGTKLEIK
B2: 08-3F2-mHvKv-IgG1 (antibody, V domains shown)
VH: DVQLQESGPDLVKPSQTLSLTCTVTGYSITSGYNWHWIRQFPGNKLEWMGYIHHSSITNYNPSLKSRISITRDTSKNQFFLQLSSVTTEDTATFYCAREGYDYDWFAYWGQGTLVTVSA
VL: DIVLAQSPATLSVTPGDSVSLSCRASQSISNNLHWYQQKSHESPRLLIKYASQSISGIPSRFSGSGSGTDFTLSINSVETEDFGMYFCQQSKSWPFTFGSGTRLEIK
B3: 23-2A6-mHvKv-IgG1-N297A (antibody, V domains shown)
VH: QVQLKESGPGLVAPSQSLSITCTVSGFSLTSYDISWIRQPPGKGLEWLGAIWTGGGTNYNSAFMSRLSISKDNSKSQVFLKMNSLQTDDTAIYYCVRDPYYYAMDYWGQGTSVTVSS
VL: DIQMNQSPSSLSASLGDTITITCHASQNLNVWLSWYQQKPGNIPKLLIYKASNLHTGVPSRFSGSGSGTGFTLTISSLQPEDIATYYCQQGQSYPRTFGGGTKLEIK
B4: 33-10C9-mHvKv-IgG1-N297A (antibody, V domains shown)
VH: QVQLQQPGAELVKPGSSVKLSCKASGYTFTTYYIYWVKQRPGQGLEWIGGINPYNGGTSFNEKFESKATLTVDISSSTAFMQLSSLTSEDSAVYYCTRDGNYVDYWGQGTTLTVSS
VL: QIVLTQSPAIMSASPGEKVTITCSASSTVSYVHWLQQKPDTSPKLWIYSTSNLASGVPARFSGSGSGTSYSLTISRMEAEDAATYYCQQRSSSPPTFGSGTKLEIK
B5: 6A11-H2K3-IgG1 (antibody, V domains shown)
VH: EVQLVESGGGLVQPGGSLRLSCAASGFTFSSFGMHWVRQAPGKGLEWVSYISSGSNTIYYADTVKGRFTISRDNAKNSLYLQMNSLRAEDTAVYYCTRNGYDGWYAMDYWGQGTTVTVSS
VL: EIVLTQSPATLSASPGERATLSCSASSSVSYIHWFQQKPGQSPRRWIYDTSKLASGIPARFSGSGSGTDYTLTISSMEPEDFATYYCQQWSTNPFTFGQGTKLEIKR
B6: 6A11-H1K3-IgG1 (antibody, V domains shown)
VH: B5 VH with T97A
VL: B5 VL
B7: 6A11-H1K4-IgG1 (antibody, V domains shown)
VH: B5 VH with T97A
VL: B5 VL with D69S, F82A
B8: 6A11-H2K4-IgG1 (antibody, V domains shown)
VH: B5 VH
VL: B5 VL with D69S, F82A
B9: 6A11-H3K3-IgG1 (antibody, V domains shown)
VH: B5 VH with L18R, S49A
VL: B5 VL
B10: 6A11-H3K4-IgG1 (antibody, V domains shown)
VH: B5 VH with L18R, S49A
VL: B5 VL with D69S, F82A
B11: 6A11-H4K3-IgG1 (antibody, V domains shown)
VH: B5 VH with L18R, S49A, A75P, V93I
VL: B5 VL
B12: 6A11-H4K4-IgG1 (antibody, V domains shown)
VH: B5 VH with L18R, S49A, A75P, V93I
VL: B5 VL with D69S, F82A
B13: 7E4-H2K2-IgG1 (antibody, V domains shown)
VH: QVQLVQSGAEVKKPGASVKVSCKASGFKFTDYAIHWVRQAPGKSLEWMGVISIYYGEASYNQKFKDRVTLTVDTSASTAYMELSSLRSEDTAVYYCAREDYYGSSSYFDYWGQGTLVTVSS
VL: DNVLTQSPSFLSASVGDRVTMTCSASSSVSSSYLHWYQQKPGASPKPLIHRTSNLASGVPSRFSGSGSGTEFTLTISSLQPEDFATYYCQQWSGYPYTFGGGTKLEIK
B14: 7E4-H1K1-IgG1 (antibody, V domains shown)
VH: B13 VH with K43Q
VL: B13 VL with V3Q, M21I, S44A
B15: 7E4-H1K2-IgG1 (antibody, V domains shown)
VH: B13 VH with K43Q
VL: B13 VL
B16: 7E4-H1K3-IgG1 (antibody, V domains shown)
VH: B13 VH with K43Q
VL: B13 VL with D1E, P41S, F72Y, L79V
B17: 7E4-H2K1-IgG1 (antibody, V domains shown)
VH: B13 VH
VL: B13 VL with V3Q, M21I, S44A
B18: 7E4-H2K3-IgG1 (antibody, V domains shown)
VH: B13 VH
VL: B13 VL with D1E, P41S, F72Y, L79V
B19: 7E4-H3K1-IgG1 (antibody, V domains shown)
VH: B13 VH with K12V, V20I, A24G, R67K, V93I, V117L
VL: B13 VL with V3Q, M21I, S44A
B20: 7E4-H3K2-IgG1 (antibody, V domains shown)
VH: B13 VH with K12V, V20I, A24G, R67K, V93I, V117L
VL: B13 VL
B21: 7E4-H3K3-IgG1 (antibody, V domains shown)
VH: B13 VH with K12V, V20I, A24G, R67K, V93I, V117L
VL: B13 VL with D1E, P41S, F72Y, L79V
B22: 24-1F4-mHvKv-IgG1 (antibody, V domains shown)
VH: EVQLRESGPSLVRPSQTLSLTCSVTGDSFTSGYWNWIRKFPGNELESMGYISYSGSTYYNPSLKSRISITRDTSKSQFYLQLSSVTAEDTATYYCARSEGWLLPFAYWGQGTLVTVSA
VL: DIVMSQSPSSLPVSVGEKVTMSCKSSQSLLYSSNQKNSLAWYQQKPGQSPKLLIYWASTRESGVPDRFTGSGSGTDFTLTISSVQAEDLSVYYCQQYYGYPFTFGSGTKLEIK
B23: 33-10C9-mHvKv-IgG1 (antibody, V domains shown)
VH: B4 VH
VL: B4 VL
B24: 23-2A6-mHvKv-IgG1 (antibody, V domains shown)
VH: B3 VH
VL: B3 VL

target: T1, hPD-L1-His (human, UniProt Q9NZQ7 19-238); assay: SPR (Biacore T200), antibody on Protein A chip, hPD-L1-His injected, 1:1 fit
T1 construct: Bought protein; also called hPD-L1-His (manufactured by Edison); not shown: His tag
T1 sequence (Q9NZQ7 19-238 limits assumed): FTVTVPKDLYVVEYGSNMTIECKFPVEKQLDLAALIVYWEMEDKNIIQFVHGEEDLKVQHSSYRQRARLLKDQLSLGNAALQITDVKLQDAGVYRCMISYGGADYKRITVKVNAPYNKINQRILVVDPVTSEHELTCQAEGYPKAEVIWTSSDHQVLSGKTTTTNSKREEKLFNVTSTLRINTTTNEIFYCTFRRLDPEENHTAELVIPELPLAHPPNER
Procedure: Subsequently, the binding affinity of the anti-PD-L1 chimeric antibody, humanized antibody, and marketed control antibody to hPD-L1-His (manufactured by Edison) were determined by surface plasmon resonance (Biacore T200 biosensor, Biacore, INC, Piscataway N.J.) equipped with pre-immobilized Protein A sensor chips.
The detection results were read after the chip was regenerated with pH 2.0 glycine (30 μl/min, 10-20 s). Kinetic association rates (kon) and dissociation rates (koff) were obtained simultaneously by fitting the data globally to a 1:1 Langmuir binding model (Karlsson, R. Roos, H. Fagerstam, L. Petersson, B., 1994. Methods Enzymology 6. 99-110) using Biacore T200 Evaluation Software 3.0. Affinities were deduced from the quotient of the kinetic rate constants (KD=koff/kon).

Q: How did the Kd turn out when B1 was run?
A: Its Kd is 5.33 nM.

Q: What about the koff of the same binder?
A: The koff was 0.000805 s⁻¹.

Q: And the kon?
A: The kon was 151000 M⁻¹ s⁻¹.

Q: B2 was tested. Which Kd did it give?
A: The Kd was 0.266 nM.

Q: What about the koff of the same binder?
A: The koff was 0.00043 s⁻¹.

Q: What about the kon of the same binder?
A: The kon was 1.62e+06 M⁻¹ s⁻¹.

Q: What does the source list for B3?
A: Kd: 4.64 nM; koff: 0.00266 s⁻¹; kon: 573000 M⁻¹ s⁻¹

Q: For B4, which Kd is on record?
A: Its Kd is 1.6 nM.

Q: What about the koff of the same binder?
A: The koff was 0.000196 s⁻¹.

Q: And the kon?
A: Its kon is 122000 M⁻¹ s⁻¹.

Q: Which Kd does the source give for B5 here?
A: Its Kd is 8.07 nM.

Q: And the koff?
A: Its koff is 0.0013 s⁻¹.

Q: What about the kon of the same binder?
A: Its kon is 162000 M⁻¹ s⁻¹.

Q: Which Kd does the source give for B6 here?
A: Its Kd is 7.8 nM.

Q: What about the koff of the same binder?
A: Its koff is 0.00113 s⁻¹.

Q: And the kon?
A: The kon was 145000 M⁻¹ s⁻¹.

Q: For B7, which Kd is on record?
A: Its Kd is 8.29 nM.

Q: And the koff?
A: The koff was 0.00124 s⁻¹.

Q: And the kon?
A: Its kon is 149000 M⁻¹ s⁻¹.

Q: How did the Kd turn out when B8 was run?
A: Its Kd is 7.01 nM.

Q: And the koff?
A: The koff was 0.00153 s⁻¹.

Q: What about the kon of the same binder?
A: Its kon is 218000 M⁻¹ s⁻¹.

Q: For B9, which Kd is on record?
A: The Kd was 4.91 nM.

Q: What about the koff of the same binder?
A: The koff was 0.0013 s⁻¹.

Q: What about the kon of the same binder?
A: The kon was 265000 M⁻¹ s⁻¹.

Q: How did the Kd turn out when B10 was run?
A: The Kd was 6.52 nM.

Q: What about the koff of the same binder?
A: Its koff is 0.00168 s⁻¹.

Q: And the kon?
A: The kon was 258000 M⁻¹ s⁻¹.

Q: What does the source list for B11?
A: Kd: 7.09 nM; koff: 0.00165 s⁻¹; kon: 233000 M⁻¹ s⁻¹

Q: Which results are given for B12?
A: Kd: 9.59 nM; koff: 0.002 s⁻¹; kon: 208000 M⁻¹ s⁻¹

Q: With B13 as the binder, how does the Kd read?
A: Its Kd is 21.9 nM.

Q: And the koff?
A: The koff was 0.0027 s⁻¹.

Q: What about the kon of the same binder?
A: The kon was 123000 M⁻¹ s⁻¹.

Q: With B14 as the binder, how does the Kd read?
A: The Kd was 26.5 nM.

Q: What about the koff of the same binder?
A: The koff was 0.00313 s⁻¹.

Q: And the kon?
A: Its kon is 118000 M⁻¹ s⁻¹.

Q: How did the Kd turn out when B15 was run?
A: Its Kd is 19.8 nM.

Q: What about the koff of the same binder?
A: The koff was 0.0025 s⁻¹.

Q: What about the kon of the same binder?
A: Its kon is 126000 M⁻¹ s⁻¹.

Q: With B16 as the binder, how does the Kd read?
A: Its Kd is 13.3 nM.

Q: And the koff?
A: The koff was 0.0017 s⁻¹.

Q: And the kon?
A: The kon was 128000 M⁻¹ s⁻¹.

Q: B17 was tested. Which Kd did it give?
A: The Kd was 27 nM.

Q: And the koff?
A: Its koff is 0.00344 s⁻¹.

Q: And the kon?
A: The kon was 128000 M⁻¹ s⁻¹.

Q: With B18 as the binder, how does the Kd read?
A: The Kd was 12.7 nM.

Q: What about the koff of the same binder?
A: Its koff is 0.00163 s⁻¹.

Q: What about the kon of the same binder?
A: The kon was 128000 M⁻¹ s⁻¹.

Q: Which Kd does the source give for B19 here?
A: The Kd was 23.9 nM.

Q: And the koff?
A: Its koff is 0.00352 s⁻¹.

Q: And the kon?
A: Its kon is 147000 M⁻¹ s⁻¹.

Q: Which results are given for B20?
A: Kd: 19.3 nM; koff: 0.00299 s⁻¹; kon: 155000 M⁻¹ s⁻¹

Q: How did the Kd turn out when B21 was run?
A: The Kd was 14.5 nM.

Q: What about the koff of the same binder?
A: Its koff is 0.00218 s⁻¹.

Q: What about the kon of the same binder?
A: Its kon is 150000 M⁻¹ s⁻¹.

target: T2, Mouse PD-L1 on CHO cells (mouse, UniProt Q9EP73 19-290); assay: flow cytometry on CHO cells expressing mPD-L1
T2 construct: Expressed in CHO cells for the cross-reactivity test; also called mPD-L1; murine PD-L1 protein
T2 sequence (Q9EP73 19-290 limits assumed): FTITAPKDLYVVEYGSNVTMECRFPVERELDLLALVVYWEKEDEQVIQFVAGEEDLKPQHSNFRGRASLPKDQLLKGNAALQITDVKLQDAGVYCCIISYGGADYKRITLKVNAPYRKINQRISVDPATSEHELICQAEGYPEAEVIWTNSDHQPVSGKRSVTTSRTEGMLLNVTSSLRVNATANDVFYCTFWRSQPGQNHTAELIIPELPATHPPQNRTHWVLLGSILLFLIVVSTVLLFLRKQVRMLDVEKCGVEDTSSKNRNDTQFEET
Text: The rhesus monkey PD-L1 protein coding sequence (rmPD-L1, SEQ ID NO: 54), the mouse PD-L1 protein coding sequence (mPD-L1, SEQ ID NO: 53), and the human-mouse chimeric PD-L1 (the extracellular region of the mouse PD-L1 protein was replaced with human protein fragments) protein coding sequence (chiPD-L1, SEQ ID NO: 55) were transferred into CHO cells for protein expression and used for the antibody cross-reactivity testing.
The test was detailed as follows: a 96-well cell culture plate was used, and the above-mentioned CHO cells expressing different PD-L1 proteins (25 μl, 2×10⁴ cells/well) was added to each well, and then 25 μl of the ascites purified anti-PD-L1 antibodies (1 μg/ml) were added to each well. The mixture was incubated at 4° C. for 30 minutes. The 96-well cell culture plate was centrifuged at 1200 rpm for 5 minutes and washed twice with PBS. Subsequently, 50 μl of anti-mouse IgG Fc-FITC at 1:100 dilution was added to each well, and was incubated at 4° C. for 30 minutes. Subsequently, the 96-well cell culture plate was centrifuged at 1200 rpm for 5 minutes, and washed once with PBS. Then 200 μl of PBS was added to each well, and flow cytometry analysis was performed.

Q: Does B22 bind?
A: Result: no binding (tested: 1 µg/ml)

Q: Does B23 bind?
A: Result: no binding (tested: 1 µg/ml)

Q: Does B24 bind?
A: Result: no binding (tested: 1 µg/ml)

target: T2, Mouse PD-L1 on CHO cells; assay: flow cytometry, CHO-mPD-L1 cells, Anti-human IgG Fc-FITC, antibody 1 µg/ml

Q: With B22 as the binder, how does the “% cells in the FITC-positive gate” value read?
A: Its value is 15.5%.

Q: How did the “% cells in the FITC-positive gate” value turn out when B23 was run?
A: Its value is 0.556%.

Q: Which “% cells in the FITC-positive gate” value does the source give for B24 here?
A: Its value is 0.886%.
